Source: patent publication US20220089698A1

Legend:
[1] = target: Env from subtype B plasma isolates (panel of 142 HIV-1 pseudotyped viruses); assay: cell-based or functional assay
[2] = target: 152 patient-derived subtype B viruses obtained from pre-ART plasma; assay: cell-based or functional assay
BSA = BSA (UniProt P02769); assay: single-point ELISA

B1: Antibody A-1 (antibody, human IgG1, kappa)
heavy: QVQLLQSGAAVTKPGASVRVSCEASGYNIRDYFIHWWRQAPGQGLQWVGWINPKTGQPNNPRQFQGRVSLTRHASWDFDTFSFYMDLKALRSDDTAVYFCARQRSDYWDFDVWGSGTQVTVSSASTKGPSVFPLAPSSKSTSGGTAALGCLVKDYFPEPVTVSWNSGALTSGVHTFPAVLQSSGLYSLSSVVTVPSSSLGTQTYICNVNHKPSNTKVDKKVEPKSCDKTHTCPPCPAPELLAGPDVFLFPPKPKDTLMISRTPEVTCVVVDVSHEDPEVKFNWYVDGVEVHNAKTKPREEQYNSTYRVVSVLTVLHQDWLNGKEYKCKVSNKALPLPEEKTISKAKGQPREPQVYTLPPSREEMTKNQVSLTCLVKGFYPSDIAVEWESNGQPENNYKTTPPVLDSDGSFFLYSKLTVDKSRWQQGNVFSCSVLHEALHSHYTQKSLSLSPGK
light: DIQMTQSPSSLSASVGDTVTITCQANGYLNWYQQRRGKAPKLLIYDGSKLERGVPSRFSGRRWGQEYNLTINNLQPEDIATYFCQVYEFVVPGTRLDLKRTVAAPSVFIFPPSDEQLKSGTASVVCLLNNFYPREAKVQWKVDNALQSGNSQESVTEQDSKDSTYSLSSTLTLSKADYEKHKVYACEVTHQGLSSPVTKSFNRGEC
B1 showed a Median IC95 (neutralization) [1] of 1.09 µg/mL.

B2: 1.52.90-1 (antibody, V domains shown)
VH: QVQLLQSGAAVTKPGASVRVSCEASGYNIRDYFIHWWRQAPGQGLQWVGWINPKTGQPNNPRQFQGRVSLTRHASFDFDTFSFYMDLKALRSDDTAVYFCARQRSDYWDFDVWGSGTQVTVSS
VL: DIQMTQSPSSLSASVGDRATITCQANGYLNWYQQRRGKAPKLLIYDGSKLERGVPSRFSGSRWGQEYNLTISSLQPEDIATYFCQVYEFFGPGTRLDLKR
Binder B2 has a Breadth (% viruses neutralized with an IC95 ≤ 50 µg/mL) [2] of 78%, a Geomean IC95 (neutralization) [2] of 4.56 µg/mL and a Median IC95 (neutralization) [2] of 4.42 µg/mL.

B3: 1.35.35-1 (antibody, human IgG1, kappa, V domains shown)
VH: QVQLVQSGAEVKKPGASVRVSCKASGYNIRDYFMHWWRQAPGQGLQWVGWINPKTGQPNNPRQFQGRVTMTRHASWDFDTFSFYMDLSRLRSDDTATYFCARQRTDYWDFDVWGQGTMVTVSS
VL: DIQMTQSPSSLSASVGDRVTITCQANGYLNWYQQKPGKAPKLLIYDGSNLETGVPSRFSGSRWGQEYTLTISSLQPEDIATYFCQVYEFVGPGTNLDIKR
In the case of B3, the ELISA (A450) (BSA) is reported as 0.06 A450.
